# Biological target: PU.1 (PU pECE) (Mus musculus) (UniProt P17433)
# Experiment: cell_activity
# Conditions: 8 copies upstream of TK-CAT in HeLa; 1 copy 3.5-3.6 fold, 4 copies 3.9-4.3 fold
substance,measurement,value
PU-1 (SV40 enhancer PU box),activity,18.3 fold
